Laboratory results as given in paper PMC12650828, “Dual-Mode Aptamer AP1-F Achieves Molecular–Morphological Precision in Cancer Diagnostics via Membrane NCL Targeting”.

target: nucleolin (NCL) (Homo sapiens, UniProt P19338 1-710); assay: MST; MST: 300 nM FAM-aptamer, NCL 1.95 nM-4 uM, binding buffer not specified, 25 C, 15 min; AP1-AP6 and Mut folded in 100 mM KCl, 10 mM K3PO4 pH 7.0; AS1411 in 100 mM NaCl, 10 mM Tris-HCl pH 7.0; cell competition at 4 C, 1 h; conditions: protein: commercial; label: 5'-FAM (amide bond linker); G4
Sequence (P19338 whole entry): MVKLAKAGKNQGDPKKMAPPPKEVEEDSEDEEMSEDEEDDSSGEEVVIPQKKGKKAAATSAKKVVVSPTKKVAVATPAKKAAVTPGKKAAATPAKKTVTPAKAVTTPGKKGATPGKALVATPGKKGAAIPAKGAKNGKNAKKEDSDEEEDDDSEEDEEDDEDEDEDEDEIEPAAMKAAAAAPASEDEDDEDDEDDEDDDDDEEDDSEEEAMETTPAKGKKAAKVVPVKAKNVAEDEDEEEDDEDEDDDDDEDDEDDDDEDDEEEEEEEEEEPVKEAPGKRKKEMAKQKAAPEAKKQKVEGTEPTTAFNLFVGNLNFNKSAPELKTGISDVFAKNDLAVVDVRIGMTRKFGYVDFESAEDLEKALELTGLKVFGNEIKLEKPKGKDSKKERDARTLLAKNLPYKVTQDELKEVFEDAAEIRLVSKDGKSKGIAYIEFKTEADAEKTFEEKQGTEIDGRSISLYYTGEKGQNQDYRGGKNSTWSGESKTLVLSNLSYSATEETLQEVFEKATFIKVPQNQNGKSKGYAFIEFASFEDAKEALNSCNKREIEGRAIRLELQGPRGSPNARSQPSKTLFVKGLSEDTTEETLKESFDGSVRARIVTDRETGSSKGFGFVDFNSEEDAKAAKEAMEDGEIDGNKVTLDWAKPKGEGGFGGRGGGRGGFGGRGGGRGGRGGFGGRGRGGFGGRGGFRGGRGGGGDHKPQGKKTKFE

Binder | Kd
GUUAGGGUUUGGGAUUG (structured_RNA) [AP1-F] | 474 ± 47.7 nM

same assay, conditions: protein: commercial; label: 5'-FAM (amide bond linker); G4, loop-length variant

Binder | Kd
GUUAGGGUUUAUUAUGGGAUUG (structured_RNA) [AP6-F] | 507 ± 132 nM
GUUAGGGUUUAUGGGAUUG (structured_RNA) [AP3-F] | 499 ± 95.5 nM
GUUAGGGUUUAUUGGGAUUG (structured_RNA) [AP4-F] | 822 ± 290 nM
GUUAGGGUUUAUUUGGGAUUG (structured_RNA) [AP5-F] | 926 ± 140 nM
GUUAGGGUUUUGGGAUUG (structured_RNA) [AP2-F] | 621 ± 269 nM
